Measured values published in doi:10.1101/2021.01.13.426390.

Key:
[1] = molecular target: T1, His6-AGR2, purified recombinant, O95994; assay: non-reducing SDS-PAGE and immunoblot of disulfide-bonded complexes; conditions: remark: other sources report otherwise
T1 chain: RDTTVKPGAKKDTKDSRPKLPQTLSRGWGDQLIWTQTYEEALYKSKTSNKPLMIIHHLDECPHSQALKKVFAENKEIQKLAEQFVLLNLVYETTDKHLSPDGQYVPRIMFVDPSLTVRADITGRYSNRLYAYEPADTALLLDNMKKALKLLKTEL

[2] = molecular target: T2, wild type AGR2, enforced expression, O95994; assay: as above; conditions: remark: other sources report otherwise
T2 chain: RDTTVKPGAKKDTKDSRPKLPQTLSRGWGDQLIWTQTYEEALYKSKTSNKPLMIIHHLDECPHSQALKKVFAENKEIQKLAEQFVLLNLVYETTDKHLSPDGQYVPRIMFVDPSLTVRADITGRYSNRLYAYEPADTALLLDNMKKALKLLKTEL

Row | Binder | stoichiometry N [1] | stoichiometry N [2]
1 | His6-AGR2, purified recombinant, O95994 21-175 (natural protein) RDTTVKPGAKKDTKDSRPKLPQTLSRGWGDQLIWTQTYEEALYKSKTSNKPLMIIHHLDECPHSQALKKVFAENKEIQKLAEQFVLLNLVYETTDKHLSPDGQYVPRIMFVDPSLTVRADITGRYSNRLYAYEPADTALLLDNMKKALKLLKTEL | 2 | –
2 | wild type AGR2, enforced expression, O95994 21-175 (natural protein) RDTTVKPGAKKDTKDSRPKLPQTLSRGWGDQLIWTQTYEEALYKSKTSNKPLMIIHHLDECPHSQALKKVFAENKEIQKLAEQFVLLNLVYETTDKHLSPDGQYVPRIMFVDPSLTVRADITGRYSNRLYAYEPADTALLLDNMKKALKLLKTEL | – | 2
